Laboratory results: patent US20250263489A1 (TEIJIN PHARMA, published 2025)

Key:
[1] = biological target: IGF-1 receptor on the cells of the PathHunter IGF1R Functional Assay (DiscoverX) (UniProt P08069 31-1367); test: cell-based or functional assay
[2] = biological target: rabbit IGF-1 receptor expressed on HEK293T cells (rabbit); test: cell-based ELISA on fixed HEK293T cells expressing the IGF-1R, antibody at 5 nM, anti-human IgG HRP, absorbance 450 nm minus 650 nm
Method: (§1) HEK293T cells were transfected by lipofection method with pEF1 expression vectors (Thermo Fisher) incorporated with the IGF-1 receptor genes of rabbit (SEQ ID NO: 76), guinea pig (SEQ ID NO: 78), rat (SEQ ID NO: 80) and mouse SEQ ID NO: 82). The transfected HEK293T cells were allowed to grow overnight or longer after the lipofection, and were then added to a 96-well plate (poly-D-lysine coated) at 4×10⁴ cells/well. The cells were then fixed in 10% buffered formalin (Mildform® 10NM, Wako) and blocked with phosphate buffer containing 3% BSA before used for ELISA.
(§2) ELISA was carried out as follows. 100 μL of each humanized antibody solution prepared at 5 nM in 1% BSA/1% FBS/PBS was added to each well, and reacted at 37° C. for about 1 hour. Anti-human IgG antibody HRP conjugate solution prepared at each concentration in 1% BSA/1% FBS/PBS was added to each well at 100 μL, reacted at 37° C. for about 1 hour, and washed three times with washing solution. […] After about 30 minutes, 100 μL of 1M sulfuric acid was added to each well, the absorbances at 450 and 650 nm were measured, and the difference between the absorbances at 450 nm and at 650 nm was calculated. The calculated difference was compared with the difference between the absorbances at 450 nm and at 650 nm for HEK293T cells without IGF-1 receptor gene (Mock) to analyze the binding activity.

[3] = biological target: guinea pig IGF-1 receptor expressed on HEK293T cells (guinea pig, UniProt P08069 31-1367 (human entry)); test: as above
Method: as §1, §2

rabbit IGF-1 receptor expressed on HEK293T cells (rabbit), sequence (chain, as listed by the source limits assumed): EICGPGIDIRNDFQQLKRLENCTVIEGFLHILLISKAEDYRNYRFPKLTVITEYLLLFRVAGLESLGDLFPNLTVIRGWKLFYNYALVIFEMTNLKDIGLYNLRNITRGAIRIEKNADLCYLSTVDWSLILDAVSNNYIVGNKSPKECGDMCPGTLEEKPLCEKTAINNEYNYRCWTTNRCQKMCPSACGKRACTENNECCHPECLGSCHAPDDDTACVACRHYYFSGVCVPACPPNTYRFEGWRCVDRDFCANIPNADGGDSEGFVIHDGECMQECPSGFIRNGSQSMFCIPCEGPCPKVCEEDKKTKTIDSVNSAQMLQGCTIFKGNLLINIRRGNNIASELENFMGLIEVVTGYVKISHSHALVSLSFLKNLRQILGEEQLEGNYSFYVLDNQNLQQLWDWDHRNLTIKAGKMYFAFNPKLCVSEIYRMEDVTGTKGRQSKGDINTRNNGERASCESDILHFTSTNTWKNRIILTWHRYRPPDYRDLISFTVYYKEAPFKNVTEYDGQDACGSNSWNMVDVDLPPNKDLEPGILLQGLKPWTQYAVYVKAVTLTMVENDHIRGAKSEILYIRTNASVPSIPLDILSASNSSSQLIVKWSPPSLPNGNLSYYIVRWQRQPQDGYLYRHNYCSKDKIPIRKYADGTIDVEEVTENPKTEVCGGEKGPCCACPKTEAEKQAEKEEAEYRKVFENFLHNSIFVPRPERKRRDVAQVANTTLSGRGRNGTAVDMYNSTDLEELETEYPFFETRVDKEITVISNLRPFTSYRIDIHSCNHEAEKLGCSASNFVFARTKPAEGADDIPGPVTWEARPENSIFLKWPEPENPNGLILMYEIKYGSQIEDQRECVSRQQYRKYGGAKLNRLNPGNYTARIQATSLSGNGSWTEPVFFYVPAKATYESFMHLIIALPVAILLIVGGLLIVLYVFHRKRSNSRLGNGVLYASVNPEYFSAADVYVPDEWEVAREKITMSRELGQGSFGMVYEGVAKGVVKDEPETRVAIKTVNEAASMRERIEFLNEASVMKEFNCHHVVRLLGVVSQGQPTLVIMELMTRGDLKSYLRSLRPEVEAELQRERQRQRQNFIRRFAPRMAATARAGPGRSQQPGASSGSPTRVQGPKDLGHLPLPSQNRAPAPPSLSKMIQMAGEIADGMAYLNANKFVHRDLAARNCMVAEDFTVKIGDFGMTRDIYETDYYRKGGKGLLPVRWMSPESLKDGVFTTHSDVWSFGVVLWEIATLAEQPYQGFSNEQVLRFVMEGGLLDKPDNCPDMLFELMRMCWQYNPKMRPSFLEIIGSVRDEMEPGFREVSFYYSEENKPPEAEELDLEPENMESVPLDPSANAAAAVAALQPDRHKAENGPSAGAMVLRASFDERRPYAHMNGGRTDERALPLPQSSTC
IGF-1 receptor on the cells of the PathHunter IGF1R Functional Assay (DiscoverX), sequence (P08069 31-1367): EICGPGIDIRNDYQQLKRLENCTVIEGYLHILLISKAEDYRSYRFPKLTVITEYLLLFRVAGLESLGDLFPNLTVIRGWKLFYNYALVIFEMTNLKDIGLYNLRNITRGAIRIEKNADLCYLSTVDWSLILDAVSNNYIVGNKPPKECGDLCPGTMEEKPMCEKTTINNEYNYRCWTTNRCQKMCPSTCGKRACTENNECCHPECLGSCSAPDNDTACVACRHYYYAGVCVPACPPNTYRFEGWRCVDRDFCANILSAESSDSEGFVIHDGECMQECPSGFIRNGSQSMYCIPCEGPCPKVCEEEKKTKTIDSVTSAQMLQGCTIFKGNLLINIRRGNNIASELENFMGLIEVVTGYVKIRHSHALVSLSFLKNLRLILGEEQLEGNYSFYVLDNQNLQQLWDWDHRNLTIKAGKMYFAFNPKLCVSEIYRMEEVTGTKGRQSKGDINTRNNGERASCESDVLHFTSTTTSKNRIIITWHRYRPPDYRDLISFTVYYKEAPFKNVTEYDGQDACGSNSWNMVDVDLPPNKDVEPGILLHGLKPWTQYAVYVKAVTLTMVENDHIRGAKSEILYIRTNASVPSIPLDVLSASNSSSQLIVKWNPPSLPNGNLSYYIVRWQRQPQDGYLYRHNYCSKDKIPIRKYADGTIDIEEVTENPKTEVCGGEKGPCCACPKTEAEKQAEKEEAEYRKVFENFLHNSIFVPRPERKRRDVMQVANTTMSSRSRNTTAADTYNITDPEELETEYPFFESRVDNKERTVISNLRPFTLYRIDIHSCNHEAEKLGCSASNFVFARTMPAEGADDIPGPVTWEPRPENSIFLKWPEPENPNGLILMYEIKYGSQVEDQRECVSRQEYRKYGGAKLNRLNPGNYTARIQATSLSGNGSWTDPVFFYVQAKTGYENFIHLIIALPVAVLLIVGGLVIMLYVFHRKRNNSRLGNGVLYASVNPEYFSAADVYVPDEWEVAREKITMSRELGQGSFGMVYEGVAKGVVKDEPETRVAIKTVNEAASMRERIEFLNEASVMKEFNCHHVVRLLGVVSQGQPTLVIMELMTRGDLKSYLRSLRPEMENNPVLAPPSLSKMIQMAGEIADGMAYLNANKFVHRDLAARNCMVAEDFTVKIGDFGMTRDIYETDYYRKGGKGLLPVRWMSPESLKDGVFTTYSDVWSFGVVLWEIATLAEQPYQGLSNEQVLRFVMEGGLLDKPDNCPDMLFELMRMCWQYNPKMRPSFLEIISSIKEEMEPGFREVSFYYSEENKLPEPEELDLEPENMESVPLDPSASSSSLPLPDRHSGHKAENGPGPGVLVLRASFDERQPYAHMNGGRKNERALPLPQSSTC
guinea pig IGF-1 receptor expressed on HEK293T cells, sequence (P08069 other isoform, or with tags, fused parts or gaps limits assumed): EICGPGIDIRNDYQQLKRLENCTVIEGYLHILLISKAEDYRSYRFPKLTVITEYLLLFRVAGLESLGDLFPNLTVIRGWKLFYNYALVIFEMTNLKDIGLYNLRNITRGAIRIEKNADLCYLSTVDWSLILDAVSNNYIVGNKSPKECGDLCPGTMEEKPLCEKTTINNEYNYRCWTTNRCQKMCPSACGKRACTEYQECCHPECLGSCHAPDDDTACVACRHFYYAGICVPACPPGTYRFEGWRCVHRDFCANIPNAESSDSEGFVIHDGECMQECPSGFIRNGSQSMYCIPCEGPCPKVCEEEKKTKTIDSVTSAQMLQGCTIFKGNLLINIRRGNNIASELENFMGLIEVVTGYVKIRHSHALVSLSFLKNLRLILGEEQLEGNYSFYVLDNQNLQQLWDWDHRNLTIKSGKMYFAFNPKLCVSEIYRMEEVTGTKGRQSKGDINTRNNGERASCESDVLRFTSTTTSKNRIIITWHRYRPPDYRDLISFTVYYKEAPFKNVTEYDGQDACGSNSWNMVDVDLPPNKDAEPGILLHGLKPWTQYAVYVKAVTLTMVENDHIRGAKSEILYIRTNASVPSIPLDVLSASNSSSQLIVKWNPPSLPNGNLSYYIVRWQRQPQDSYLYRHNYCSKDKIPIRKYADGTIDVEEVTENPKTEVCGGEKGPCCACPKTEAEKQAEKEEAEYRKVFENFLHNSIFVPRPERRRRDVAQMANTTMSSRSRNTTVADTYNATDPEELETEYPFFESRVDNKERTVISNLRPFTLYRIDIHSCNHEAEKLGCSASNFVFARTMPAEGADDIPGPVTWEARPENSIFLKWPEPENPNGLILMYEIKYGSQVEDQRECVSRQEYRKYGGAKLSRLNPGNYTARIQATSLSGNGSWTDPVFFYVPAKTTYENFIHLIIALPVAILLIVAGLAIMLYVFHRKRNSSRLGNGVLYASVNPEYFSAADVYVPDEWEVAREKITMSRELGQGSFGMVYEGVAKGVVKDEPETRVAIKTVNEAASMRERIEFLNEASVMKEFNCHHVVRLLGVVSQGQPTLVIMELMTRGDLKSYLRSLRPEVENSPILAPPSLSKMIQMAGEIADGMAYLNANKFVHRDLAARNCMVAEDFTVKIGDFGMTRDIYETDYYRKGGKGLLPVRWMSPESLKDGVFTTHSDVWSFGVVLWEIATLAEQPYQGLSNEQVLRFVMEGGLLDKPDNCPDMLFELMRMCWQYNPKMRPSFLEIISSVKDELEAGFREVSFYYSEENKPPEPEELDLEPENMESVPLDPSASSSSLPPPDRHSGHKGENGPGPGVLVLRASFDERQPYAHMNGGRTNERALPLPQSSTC

Signal intensity (ratio to IGF11-16) at 16.7 nM, PathHunter [1]: 1 ratio to human chimeric IGF11-16
binding result [2]: binds
binding result [3]: binds
B1: human chimeric IGF11-16 antibody (antibody, V domains shown)
VH: QIQLQQPGAELVKPGASVKLSCKAPGYTFTSYWMHWVKQRPGQGLEWIGETNPSNSVTNYNEKFKSKATLTVDKSSSTAYMQLSSLTSEDSAVYYCTIGRGRGFAYWGQGTLVTVSA
VL: DIQMNQSPSSLSASLGDTITITCRASQNINFWLSWCQQKPGNIPKLLIYKASNLHTGVPSRFSGSGSGTDFTLTISSLQPEDIATYYCLQGQSYPYTFGGGTKLEIK
notes: also called Chimera; human mouse chimeric antibody IGF11-16
